Assay [1] has as its target T1, WDR5 (WD (Trp-Asp) repeat domain 5) (UniProt P61964 1-334). The assay is described as follows: fluorescence polarisation.
Assay [2] addresses T1, WDR5 (WD (Trp-Asp) repeat domain 5). In words: fluorescence polarisation. The source holds these as a separate data set.

Read-outs that look alike come from different tables or passages of the source. Square brackets hold non-standard residues; d marks the D form. ACPC = not defined here; Ac3c = NC1(C(=O)O)CC1

B1: VR-ACPC (peptide)
chain: Ac-Val-Arg-[ACPC]-NH2
modifications: reading uncertain
As a reminder, the Ki is the equilibrium dissociation constant of an inhibitor or competing ligand from its target. B1: the affinity in assay [1], expressed as Ki, was 0.6 µM.

B2: ACPC-RV (peptide)
chain: Ac-[Ac3c]-Arg-Val-NH2
In turn, B2 had a Ki in assay [2] of 0.06 µM.

For the origin of these results see publication PMC5180416 (Journal of the American Chemical Society, 2012).
